The subject of the experiment is growth cones of Xenopus spinal neurons. Briefly: Growth cone turning in gradients of purified MAG or purified myelin. The settings on record: purified MAG 150 μg/ml, purified myelin 25 μg/ml in the pipette; with or without Sp-cAMPS, 8-br-cGMP, low Ca2+. The format is cell-based. The method, then:
FIG. 5. Growth cone turning induced by purified myelin. A gradient of purified myelin (25 μg/ml in the pipette) was applied in normal culture medium (open circles), in medium containing Sp-cAMPS (20 μM, solid circles), or 8-br-cGMP (100 μM, solid squares). Isolated symbols along the abscissa are median values for corresponding data shown above.
FIGS. 6A, 6B. Effects of purified myelin-associated glycoprotein (MAG) on growth cones of Xenopus spinal neurons. A gradient of purified MAG (150 μg/ml in the pipette) was applied in normal culture medium (open circles), in medium containing Sp-cAMPS (20 μM, solid circles), or in medium containing 8-br-cGMP (100 μM, solid squares). (A) Shown are distributions of turning angles under different conditions. Isolated symbols along the abscissa are median values for corresponding data shown above. (B) Shown are distributions of net neurite extension in the gradient under different conditions.
FIGS. 7A, 7B. Effects of reducing external Ca^2+. (A) Purified MAG-induced turning depends on [Ca^2+]o. Shown are distributions of turning angles in normal medium in the absence (solid circles) or presence of Sp-cAMPS (20 μM, solid squares), and in medium containing 1 μM [Ca^2+]o in the absence (open circles) or presence of Sp-cAMPS (20 μM, open squares), respectively. […]
8. […] Only growth cones with a net extension >5 μm over the one-hour period were scored.

Data on 1 molecule can be found in US6512004B2, “Promoters of neural regeneration” (The Regents of the University of California, priority 1998, dated 2003).

B1: purified myelin-associated glycoprotein (MAG): Native MAG purified from myelin after extraction in 1% octylglucoside and DEAE-Sepharose separation (protein, UniProt P07722 20-626, looked up)
Myelin-associated glycoprotein: GHWGAWMPSSISAFEGTCVSIPCRFDFPDELRPAVVHGVWYFNSPYPKNYPPVVFKSRTQVVHESFQGRSRLLGDLGLRNCTLLLSTLSPELGGKYYFRGDLGGYNQYTFSEHSVLDIINTPNIVVPPEVVAGTEVEVSCMVPDNCPELRPELSWLGHEGLGEPTVLGRLREDEGTWVQVSLLHFVPTREANGHRLGCQAAFPNTTLQFEGYASLDVKYPPVIVEMNSSVEAIEGSHVSLLCGADSNPPPLLTWMRDGMVLREAVAESLYLDLEEVTPAEDGIYACLAENAYGQDNRTVELSVMYAPWKPTVNGTVVAVEGETVSILCSTQSNPDPILTIFKEKQILATVIYESQLQLELPAVTPEDDGEYWCVAENQYGQRATAFNLSVEFAPIILLESHCAAARDTVQCLCVVKSNPEPSVAFELPSRNVTVNETEREFVYSERSGLLLTSILTLRGQAQAPPRVICTSRNLYGTQSLELPFQGAHRLMWAKIGPVGAVVAFAILIAIVCYITQTRRKKNVTESPSFSAGDNPHVLYSPEFRISGAPDKYESEKRLGSERRLLGLRGEPPELDLSYSHSDLGKRPTKDSYTLTEELAEYAEIRVK
Turning to B1, the “growth cone turning induced by the purified factor and its modulation” value is “results similar to those with rMAG”.
